Measured values reported in US20040038883A1 (published 2004).

T1: SGK
T1 chain: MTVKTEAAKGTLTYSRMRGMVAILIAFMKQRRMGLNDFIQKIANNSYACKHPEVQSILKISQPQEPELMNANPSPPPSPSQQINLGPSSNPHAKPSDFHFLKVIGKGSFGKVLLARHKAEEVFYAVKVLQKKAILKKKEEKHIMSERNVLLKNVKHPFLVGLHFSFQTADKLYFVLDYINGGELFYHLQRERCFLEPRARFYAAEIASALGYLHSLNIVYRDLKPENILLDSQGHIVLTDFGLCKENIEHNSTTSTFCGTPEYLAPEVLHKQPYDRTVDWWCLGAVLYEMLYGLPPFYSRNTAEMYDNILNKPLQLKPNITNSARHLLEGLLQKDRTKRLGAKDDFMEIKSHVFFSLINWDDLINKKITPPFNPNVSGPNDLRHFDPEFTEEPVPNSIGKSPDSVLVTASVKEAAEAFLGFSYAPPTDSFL


Legend:
SGK = molecular target: T1, SGK; test: in vitro SGK kinase activity assay, 33P-ATP, Flash Plate
Src = molecular target: T2, Src; test: in vitro Src kinase activity assay, 33P-ATP, Flash Plate
T2 construct: Bought enzyme

Cdc2 = molecular target: T3, Cdc2; test: in vitro CDC2 kinase activity assay, 33P-ATP, Flash Plate
T3 construct: Bought enzyme

PKCδ = molecular target: T4, PKCδ; test: in vitro PKC delta kinase activity assay, 33P-ATP, Flash Plate
T4 construct: Bought enzyme; also called PKC delta

PKCγ = molecular target: T5, PKCγ; test: in vitro PKC gamma kinase activity assay, 33P-ATP, Flash Plate
T5 construct: Bought enzyme; also called PKC gamma

PKA = molecular target: T6, PKA; test: in vitro PKA kinase activity assay, 33P-ATP, kemptide substrate, Flash Plate
T6 construct: Bought enzyme

[1] = molecular target: T7, Akt wild-type recombinant protein (Akt1) (Homo sapiens (Human), UniProt P31749 1-480, as many as five phosphorylations seen by ESI-MS (positions not stated)); test: in vitro Akt1 kinase activity assay, biotinylated Bad-derived peptide substrate
T7 construct: also called Akt1 wild type
T7 sequence (P31749 other isoform, or with tags, fused parts or gaps limits assumed): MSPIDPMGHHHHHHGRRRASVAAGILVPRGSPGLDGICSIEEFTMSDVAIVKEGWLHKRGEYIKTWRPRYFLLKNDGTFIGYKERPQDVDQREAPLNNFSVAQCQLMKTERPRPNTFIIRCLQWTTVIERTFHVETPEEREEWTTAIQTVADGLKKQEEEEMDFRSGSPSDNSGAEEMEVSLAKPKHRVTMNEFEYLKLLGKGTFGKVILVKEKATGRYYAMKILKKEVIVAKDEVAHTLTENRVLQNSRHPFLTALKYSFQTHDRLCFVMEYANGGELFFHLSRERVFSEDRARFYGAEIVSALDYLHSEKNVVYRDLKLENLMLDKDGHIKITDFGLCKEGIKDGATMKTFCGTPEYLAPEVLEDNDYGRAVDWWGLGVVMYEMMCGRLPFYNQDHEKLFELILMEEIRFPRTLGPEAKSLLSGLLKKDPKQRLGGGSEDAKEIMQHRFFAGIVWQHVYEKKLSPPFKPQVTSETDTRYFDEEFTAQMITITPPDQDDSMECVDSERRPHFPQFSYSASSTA

Binder | Ki (SGK) [µM] | Ki (Src) [µM] | Ki (Cdc2) [µM] | Ki (PKCδ) [µM] | Ki (PKCγ) [µM] | Ki (PKA) [µM] | Ki [1] [µM]
VELDPEFEPRARERTYSFGH [Peptide 1] | 1 | > 33 | > 33 | > 42 | > 30 | > 34 | 1.11
VELDPEFEPRARERAYAFGH (Made from peptide 2 by changing Thr at position 15 to Ala) [Peptide 4] | 12.5 | > 33 | > 33 | > 42 | > 30 | > 34 | 0.095
